Laboratory results published in patent US20200392225A1 (Novartis, published 2020).
Read-outs that look alike come from different tables or passages of the source.

T1: human NPR1-ANP complex (human, UniProt P01160 124-151, limits assumed)
T1 construct: Receptor antigen measured in the presence of ANP; also called hNPR1 + ANP; hNPR1-ANP-complex
T1 sequence: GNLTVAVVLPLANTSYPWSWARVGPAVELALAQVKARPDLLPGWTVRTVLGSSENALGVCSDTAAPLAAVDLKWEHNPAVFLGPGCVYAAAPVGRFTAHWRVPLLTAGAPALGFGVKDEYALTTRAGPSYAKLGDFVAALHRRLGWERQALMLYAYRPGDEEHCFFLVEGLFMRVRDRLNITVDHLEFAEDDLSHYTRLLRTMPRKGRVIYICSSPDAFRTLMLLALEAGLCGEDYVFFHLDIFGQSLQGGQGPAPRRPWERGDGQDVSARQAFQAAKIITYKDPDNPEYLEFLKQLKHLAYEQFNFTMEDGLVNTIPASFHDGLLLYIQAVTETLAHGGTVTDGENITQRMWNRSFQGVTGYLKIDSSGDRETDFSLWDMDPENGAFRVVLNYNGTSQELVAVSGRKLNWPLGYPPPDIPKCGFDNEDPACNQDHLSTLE
T1 sequence (peptide): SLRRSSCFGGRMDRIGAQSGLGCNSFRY

T2: constitutively active human NPR1 mutant (W74R), recombinant antigen (human, UniProt P16066 33-473)
T2 construct: also called W74R hNPR1
T2 sequence: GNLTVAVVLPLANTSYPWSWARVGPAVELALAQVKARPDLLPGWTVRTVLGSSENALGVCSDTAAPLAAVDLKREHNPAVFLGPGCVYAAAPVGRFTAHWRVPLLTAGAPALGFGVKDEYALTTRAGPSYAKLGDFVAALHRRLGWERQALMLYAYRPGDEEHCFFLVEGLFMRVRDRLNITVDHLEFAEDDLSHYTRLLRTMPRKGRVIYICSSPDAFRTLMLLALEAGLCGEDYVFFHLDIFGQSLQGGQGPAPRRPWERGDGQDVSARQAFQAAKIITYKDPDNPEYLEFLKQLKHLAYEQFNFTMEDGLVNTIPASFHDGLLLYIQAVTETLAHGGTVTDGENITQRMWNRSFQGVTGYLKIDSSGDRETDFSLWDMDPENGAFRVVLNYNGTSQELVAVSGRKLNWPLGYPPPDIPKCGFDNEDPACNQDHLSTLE

T3: human NPR1 (Natriuretic Peptide Receptor 1), recombinant antigen (human, UniProt P16066 33-473)
T3 construct: also called hNPR1; NPR1-hFc
T3 sequence: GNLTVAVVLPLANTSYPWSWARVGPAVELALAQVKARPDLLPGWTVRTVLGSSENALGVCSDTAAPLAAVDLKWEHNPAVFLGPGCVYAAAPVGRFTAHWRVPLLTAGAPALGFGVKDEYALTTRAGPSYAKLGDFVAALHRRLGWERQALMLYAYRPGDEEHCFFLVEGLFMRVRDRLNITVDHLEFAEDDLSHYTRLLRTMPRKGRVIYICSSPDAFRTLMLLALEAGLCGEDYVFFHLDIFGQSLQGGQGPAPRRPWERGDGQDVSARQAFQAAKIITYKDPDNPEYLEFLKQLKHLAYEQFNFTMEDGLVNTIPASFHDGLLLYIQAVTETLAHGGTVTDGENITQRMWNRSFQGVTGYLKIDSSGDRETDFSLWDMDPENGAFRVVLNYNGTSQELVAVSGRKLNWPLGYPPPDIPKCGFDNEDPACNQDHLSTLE

T4: human NPR1 expressed on CHO-K1 cells in the presence of ANP (human, UniProt P01160 124-151)
T4 construct: also called hNPR1 CHO K1 + 100 nM ANP
T4 sequence: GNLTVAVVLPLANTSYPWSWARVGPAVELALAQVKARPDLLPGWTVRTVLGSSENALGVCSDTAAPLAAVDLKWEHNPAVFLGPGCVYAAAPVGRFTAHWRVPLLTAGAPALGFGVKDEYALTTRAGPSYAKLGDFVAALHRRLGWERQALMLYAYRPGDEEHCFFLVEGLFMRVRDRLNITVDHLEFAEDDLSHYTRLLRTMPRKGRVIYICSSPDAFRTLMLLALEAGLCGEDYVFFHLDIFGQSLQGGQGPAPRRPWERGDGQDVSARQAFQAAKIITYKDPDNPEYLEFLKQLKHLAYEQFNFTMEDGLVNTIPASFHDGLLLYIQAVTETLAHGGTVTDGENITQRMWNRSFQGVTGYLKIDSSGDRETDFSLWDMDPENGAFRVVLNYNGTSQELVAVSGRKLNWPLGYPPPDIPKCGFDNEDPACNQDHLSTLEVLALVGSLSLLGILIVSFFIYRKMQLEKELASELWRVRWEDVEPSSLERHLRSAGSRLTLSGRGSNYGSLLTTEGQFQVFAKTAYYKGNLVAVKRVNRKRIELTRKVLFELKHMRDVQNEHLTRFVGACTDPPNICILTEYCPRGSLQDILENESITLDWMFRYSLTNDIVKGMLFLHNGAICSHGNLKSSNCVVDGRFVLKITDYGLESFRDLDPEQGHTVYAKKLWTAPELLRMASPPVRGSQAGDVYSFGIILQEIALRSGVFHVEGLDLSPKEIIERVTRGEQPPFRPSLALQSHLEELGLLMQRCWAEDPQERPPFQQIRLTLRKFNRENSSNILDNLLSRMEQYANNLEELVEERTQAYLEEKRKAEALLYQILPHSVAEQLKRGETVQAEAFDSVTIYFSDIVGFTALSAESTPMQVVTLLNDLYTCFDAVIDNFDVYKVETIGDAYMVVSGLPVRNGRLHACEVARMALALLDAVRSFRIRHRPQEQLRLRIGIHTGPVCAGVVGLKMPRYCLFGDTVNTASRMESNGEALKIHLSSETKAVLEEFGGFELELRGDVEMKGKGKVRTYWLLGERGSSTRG
T4 sequence (peptide): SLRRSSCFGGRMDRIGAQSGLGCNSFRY

T5: human NPR1 expressed on CHO-K1 cells (human, UniProt P16066 33-1061)
T5 sequence: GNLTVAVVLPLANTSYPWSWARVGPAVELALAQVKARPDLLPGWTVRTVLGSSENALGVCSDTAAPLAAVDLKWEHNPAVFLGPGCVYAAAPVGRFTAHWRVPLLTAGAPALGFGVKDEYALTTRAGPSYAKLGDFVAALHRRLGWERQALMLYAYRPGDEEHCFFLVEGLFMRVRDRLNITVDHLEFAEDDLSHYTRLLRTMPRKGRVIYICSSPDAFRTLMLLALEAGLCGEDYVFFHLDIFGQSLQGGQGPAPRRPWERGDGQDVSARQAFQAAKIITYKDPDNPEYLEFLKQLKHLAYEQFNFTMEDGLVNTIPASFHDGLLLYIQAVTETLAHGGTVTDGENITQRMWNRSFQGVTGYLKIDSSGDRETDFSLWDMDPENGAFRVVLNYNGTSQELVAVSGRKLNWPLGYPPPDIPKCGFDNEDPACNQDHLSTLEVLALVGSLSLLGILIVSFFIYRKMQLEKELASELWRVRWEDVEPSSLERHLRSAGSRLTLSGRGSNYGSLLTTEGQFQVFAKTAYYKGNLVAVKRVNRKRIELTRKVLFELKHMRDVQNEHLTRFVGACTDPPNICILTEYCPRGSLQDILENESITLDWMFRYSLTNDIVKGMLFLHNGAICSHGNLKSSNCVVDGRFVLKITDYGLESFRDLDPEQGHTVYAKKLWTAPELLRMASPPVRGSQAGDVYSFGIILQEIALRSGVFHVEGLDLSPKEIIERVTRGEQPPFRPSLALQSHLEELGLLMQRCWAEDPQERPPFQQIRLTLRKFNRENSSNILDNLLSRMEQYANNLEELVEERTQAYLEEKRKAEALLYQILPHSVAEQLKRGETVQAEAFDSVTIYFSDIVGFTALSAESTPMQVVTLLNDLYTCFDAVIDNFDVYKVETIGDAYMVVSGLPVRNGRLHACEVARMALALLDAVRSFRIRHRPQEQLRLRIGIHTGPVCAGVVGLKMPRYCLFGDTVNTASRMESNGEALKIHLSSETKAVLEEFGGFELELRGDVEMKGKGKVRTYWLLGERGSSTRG

T6: rat NPR1, recombinant antigen (rat, UniProt P18910 29-469)
T6 construct: NCBI NP_036745.1 printed; also called rNPR1
T6 sequence: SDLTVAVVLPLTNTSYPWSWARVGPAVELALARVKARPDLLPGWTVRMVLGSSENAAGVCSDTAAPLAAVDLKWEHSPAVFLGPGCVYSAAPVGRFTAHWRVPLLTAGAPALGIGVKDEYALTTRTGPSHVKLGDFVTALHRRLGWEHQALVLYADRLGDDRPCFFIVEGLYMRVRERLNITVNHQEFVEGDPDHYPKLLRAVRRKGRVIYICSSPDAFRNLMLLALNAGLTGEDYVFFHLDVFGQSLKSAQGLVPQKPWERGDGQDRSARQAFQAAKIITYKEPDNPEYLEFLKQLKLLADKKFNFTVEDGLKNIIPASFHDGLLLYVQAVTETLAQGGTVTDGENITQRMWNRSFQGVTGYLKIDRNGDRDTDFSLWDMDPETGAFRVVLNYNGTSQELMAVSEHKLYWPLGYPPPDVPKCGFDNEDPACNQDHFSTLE


Assays:
human NPR1-ANP complex [1] = target: T1, human NPR1-ANP complex; assay: ELISA, IgG titrated on the antigen with 250 fold molar excess of ANP [cont.]
rat NPR1-ANP complex = target: T7, rat NPR1-ANP complex (rat); assay: ELISA, 1 uM IgG, +100 nM ANP
T7 construct: Rat receptor antigen measured in the presence of ANP; also called rNPR1 + ANP; rNPR1-ANP-complex

human NPR1-ANP complex [2] = target: T1, human NPR1-ANP complex; assay: ELISA, 1 uM IgG, +100 nM ANP
[3] = target: T2, constitutively active human NPR1 mutant …; assay: ELISA, 1 uM IgG
[4] = target: T3, human NPR1 (Natriuretic Peptide …); assay: ELISA, 1 uM IgG
[5] = target: T4, human NPR1 expressed on CHO-K1 cells in …; assay: flow cytometry, 1 uM IgG, +100 nM ANP
[6] = target: T2, constitutively active human NPR1 mutant …; assay: ELISA, IgG titrated on the antigen without ANP [cont.]
[7] = target: T3, human NPR1 (Natriuretic Peptide …); assay: as above
[8] = target: T5, human NPR1 expressed on CHO-K1 cells; assay: cell-based or functional assay
[9] = target: T5, human NPR1 expressed on CHO-K1 cells; assay: flow cytometry, 1 uM IgG
human NPR1-ANP complex [10] = target: T1, human NPR1-ANP complex; assay: ELISA, IgG titrated on the antigen with 250 fold molar excess of ANP [cont.]; remark: listed apart in the source
[11] = target: T3, human NPR1 (Natriuretic Peptide …); assay: FRET assay on hNPR1, competitor Cy5-labeled ANP [cont.]
[12] = target: T6, rat NPR1, recombinant antigen; assay: ELISA, 1 uM IgG

EC50 (read off the curve) (human NPR1-ANP complex [1]) [nM]	ELISA IgG binding at 1 uM IgG (unit not given) (rat NPR1-ANP complex)	ELISA IgG binding at 1 uM IgG (unit not given) (human NPR1-ANP complex [2])	ELISA IgG binding at 1 uM IgG (unit not given) [3]	ELISA IgG binding at 1 uM IgG (unit not given) [4]	flow cytometry S/BG [5] [S/BG]	EC50 (read off the curve) [6] [nM]	EC50 (read off the curve) [7] [nM]	cGMP conc [nM] at 1 uM IgG, +0.075 nM ANP [8] [nM]	cGMP conc [nM] at 1 uM IgG, without ANP [8] [nM]	flow cytometry S/BG [9] [S/BG]	EC50 (read off the curve) (human NPR1-ANP complex [10]) [nM]	IC50 (read off the curve) [11] [nM]	ELISA IgG binding at 1 uM IgG (unit not given) [12]	Binder
~0.5	–	–	–	–	–	–	–	–	–	–	–	–	–	XX08 (antibody, human IgG1, kappa, L234A L235A, V domains shown, the panel axis reads IgG conc; [nM]; the list MOLECULES holds only the FabCys format; also called XX08 IgG; XX08_LALA) VH: EVQLLESGGGLVQPGGSLRLSCAASGFTFNTHYIHWVRQAPGKGLEWVSSIGGQGGMTLYADSVKGRFTISRDNSKNTLYLQMNSLRAEDTAVYYCARERGYVYYHMFDPWGQGTLVTVSS VL: DIVLTQSPATLSLSPGERATLSCRASQSITRNYLAWYQQKPGQAPRLLIYGASSRATGIPARFSGSGSGTDFTLTISSLEPEDFAVYYCQQHSMYPRTFGQGTKVEIKR
–	4	102	83	91	18	~5	~8	15	12	26	~8	~5	–	YY06 IgG (YY06_LALA) (antibody, V domains shown) VH: EVQLLESGGGLVQPGGSLRLSCAASGFTFSSYAISWVRQAPGKGLEWVSAISGSGGSTYYAESVKGRFTISRDNSKNTLYLQMNSLRAEDTAVYYCARPYLGDRRSYGFDHWGQGTLVTVSS VL: QSALTQPASVSGSPGQSITISCTGTSSDVGSYNLVSWYQQHPGKAPKLMIYEGSKRPSGVSNRFSGSKSGNTASLTISGLQAEDEADYYCSSYGFHIVVVVFGGGTKLTVLG
–	16	32	69	81	5	~1	–	15	13	15	–	–	11	YY05 IgG (YY05_LALA) (antibody, V domains shown) VH: EVQLVQSGAEVKKPGESLKISCKGSGYSFTSYWISWVRQMPGKGLEWMGIIYPGTSYTRYSPSFQGQVTISADKSISTAYLQWSSLKASDTAMYYCARGAVAGQLGFDHWGQGTLVTVSS VL: QSVLTQPPSVSGAPGQRVTISCTGSSSNIGAGYDVHWYQQLPGTAPKLLIYGNSNRPSGVPDRFSGSKSGTSASLAITGLQAEDEADYYCQSYYTSSHGPVFGGGTKLTVLG
